In PMC9352680, “A comprehensive thermodynamic model for RNA binding by the Saccharomyces cerevisiae Pumilio protein PUF4”:

T1: PUF4 RNA-binding domain (Saccharomyces cerevisiae, UniProt P25339 537-888)
T1 sequence: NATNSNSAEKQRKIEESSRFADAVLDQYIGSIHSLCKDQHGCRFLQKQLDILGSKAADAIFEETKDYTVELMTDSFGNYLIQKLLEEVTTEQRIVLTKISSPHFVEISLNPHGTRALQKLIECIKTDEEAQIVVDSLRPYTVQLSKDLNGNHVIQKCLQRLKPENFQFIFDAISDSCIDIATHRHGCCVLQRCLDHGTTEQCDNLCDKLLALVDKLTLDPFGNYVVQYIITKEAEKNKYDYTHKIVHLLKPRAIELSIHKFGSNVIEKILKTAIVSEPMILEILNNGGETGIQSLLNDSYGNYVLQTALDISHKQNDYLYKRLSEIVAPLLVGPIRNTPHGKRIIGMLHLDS


target: T1, PUF4 RNA-binding domain; assay: Mg; RNA-MaP; 20 mM Na-HEPES pH 7.4, 30 mM KOAc, 0.75 mM MgCl2, 0.1% Tween-20, 5% glycerol, 0.1 mg/mL BSA, 2 mM DTT; 25 C; 0.0125-409.6 nM protein; details: tags: N-His6-TEV cleaved; C-SNAP kept, Cy3B-labelled; label: tethered on chip by stalled RNA polymerase

Binder	Kd [nM]
UCUCUUCAUAUAUUAUUAUCUCUCUU (ssRNA) [Id_ii_S1_P5E.3_K5.2_C5.2_[T-1A]_H5.2_A5.1_F5.1_T5.2_[A12C]]	180
UCUCUUAUUAUAUUAUUACUUCUCUU (ssRNA) [Id_ii_S1_P5E.3_K5.2_C5.2_[C-2A]_H5.2_A5.1_F5.1_T5.2_[T11C]_[A12T]]	175
UCUCUUGCACACUUAUUACUUCUCUU (ssRNA) [Id_ii_S1_P5E.4_K5.3_C5.2_[C-2G]_[T-1C]_H5.3_A5.1_F5.1_T5.2_[T11C]_[A12T]]	1530
UCUCUUCCUAUAUUAUUACGUCUCUU (ssRNA) [Id_ii_S1_P5E.3_K5.2_C5.2_[T-1C]_H5.2_A5.1_F5.1_T5.2_[T11C]_[A12G]]	746
UCUCUUCCUAUAUUAUUAAAUCUCUU (ssRNA) [Id_ii_S1_P5E.3_K5.2_C5.2_[T-1C]_H5.2_A5.1_F5.1_T5.2_[T11A]]	683
UCUCUUCCUAUAUUAUUACAUCUCUU (ssRNA) [Id_ii_S1_P5E.3_K5.2_C5.2_[T-1C]_H5.2_A5.1_F5.1_T5.2_[T11C]]	592
UCUCUUCUUAUAUUAUUAGCUCUCUU (ssRNA) [Id_ii_S1_P5E.3_K5.2_C5.2_H5.2_A5.1_F5.1_T5.2_[T11G]_[A12C]]	122
UCUCUUCCUAUAUUAUUAAGUCUCUU (ssRNA) [Id_ii_S1_P5E.3_K5.2_C5.2_[T-1C]_H5.2_A5.1_F5.1_T5.2_[T11A]_[A12G]]	971
UCUCUUCGUAUAUUAUUAAAUCUCUU (ssRNA) [Id_ii_S1_P5E.3_K5.2_C5.2_[T-1G]_H5.2_A5.1_F5.1_T5.2_[T11A]]	38.8
UCUCUUCUUAUAUUAUUAUCUCUCUU (ssRNA) [Id_ii_S1_P5E.3_K5.2_C5.2_H5.2_A5.1_F5.1_T5.2_[A12C]]	491
UCUCUUCUUAUAUUAUUAAAUCUCUU (ssRNA) [Id_ii_S1_P5E.3_K5.2_C5.2_H5.2_A5.1_F5.1_T5.2_[T11A]]	730
UCUCUUACUAUAUUAUUAUCUCUCUU (ssRNA) [Id_ii_S1_P5E.3_K5.2_C5.2_[C-2A]_[T-1C]_H5.2_A5.1_F5.1_T5.2_[A12C]]	536
UCUCUUAAUAUAUUAUUACAUCUCUU (ssRNA) [Id_ii_S1_P5E.3_K5.2_C5.2_[C-2A]_[T-1A]_H5.2_A5.1_F5.1_T5.2_[T11C]]	601
UCUCUUCUUAUAUUAUUACUUCUCUU (ssRNA) [Id_ii_S1_P5E.3_K5.2_C5.2_H5.2_A5.1_F5.1_T5.2_[T11C]_[A12T]]	439
UCUCUUAUUAUAUUAUUACGUCUCUU (ssRNA) [Id_ii_S1_P5E.3_K5.2_C5.2_[C-2A]_H5.2_A5.1_F5.1_T5.2_[T11C]_[A12G]]	126
UCUCUUUGUAUUACUGUCUCUU (ssRNA) [Ib_S1_P5E.1_K5.1_C5.1_H5.1_A5.1_F5.1_[T8C]_[A10G]_T5.1]	71.2
UCUCUUUGUAUUAGUCUCUCUU (ssRNA) [Ib_S1_P5E.1_K5.1_C5.1_H5.1_A5.1_F5.1_[T8G]_[A10C]_T5.1]	518
UCUCUUAUUAUAUUAUUACCUCUCUU (ssRNA) [Id_ii_S1_P5E.3_K5.2_C5.2_[C-2A]_H5.2_A5.1_F5.1_T5.2_[T11C]_[A12C]]	203
UCUCUUCAUAUAUUAUUACCUCUCUU (ssRNA) [Id_ii_S1_P5E.3_K5.2_C5.2_[T-1A]_H5.2_A5.1_F5.1_T5.2_[T11C]_[A12C]]	278
UCUCUUCAUAUAUUAUUAUUUCUCUU (ssRNA) [Id_ii_S1_P5E.3_K5.2_C5.2_[T-1A]_H5.2_A5.1_F5.1_T5.2_[A12T]]	395
UCUCUUGCACACUUAUUACAUCUCUU (ssRNA) [Id_ii_S1_P5E.4_K5.3_C5.2_[C-2G]_[T-1C]_H5.3_A5.1_F5.1_T5.2_[T11C]]	1210

Binder	Kd [nM]
UCUCUUCUUAUAUUAUUAACUCUCUU (ssRNA) [Id_ii_S1_P5E.3_K5.2_C5.2_H5.2_A5.1_F5.1_T5.2_[T11A]_[A12C]]	476
UCUCUUCUUAUAUUAUUACCUCUCUU (ssRNA) [Id_ii_S1_P5E.3_K5.2_C5.2_H5.2_A5.1_F5.1_T5.2_[T11C]_[A12C]]	571
UCUCUUCGUAUAUUAUUAAUUCUCUU (ssRNA) [Id_ii_S1_P5E.3_K5.2_C5.2_[T-1G]_H5.2_A5.1_F5.1_T5.2_[T11A]_[A12T]]	26.5
UCUCUUGCACACUUAUUACCUCUCUU (ssRNA) [Id_ii_S1_P5E.4_K5.3_C5.2_[C-2G]_[T-1C]_H5.3_A5.1_F5.1_T5.2_[T11C]_[A12C]]	1320
UCUCUUUGUAUUACCAUCUCUU (ssRNA) [Ib_S1_P5E.1_K5.1_C5.1_H5.1_A5.1_F5.1_[T8C]_[T9C]_T5.1]	287
UCUCUUCCUAUAUUAUUAAUUCUCUU (ssRNA) [Id_ii_S1_P5E.3_K5.2_C5.2_[T-1C]_H5.2_A5.1_F5.1_T5.2_[T11A]_[A12T]]	779
UCUCUUCGUAUAUUAUUAGCUCUCUU (ssRNA) [Id_ii_S1_P5E.3_K5.2_C5.2_[T-1G]_H5.2_A5.1_F5.1_T5.2_[T11G]_[A12C]]	25.6
UCUCUUCUUAUAUUAUUAGUUCUCUU (ssRNA) [Id_ii_S1_P5E.3_K5.2_C5.2_H5.2_A5.1_F5.1_T5.2_[T11G]_[A12T]]	82.2
UCUCUUCAUAUAUUAUUAACUCUCUU (ssRNA) [Id_ii_S1_P5E.3_K5.2_C5.2_[T-1A]_H5.2_A5.1_F5.1_T5.2_[T11A]_[A12C]]	218
UCUCUUGCACACUUAUUAACUCUCUU (ssRNA) [Id_ii_S1_P5E.4_K5.3_C5.2_[C-2G]_[T-1C]_H5.3_A5.1_F5.1_T5.2_[T11A]_[A12C]]	1890
UCUCUUAAUAUAUUAUUACUUCUCUU (ssRNA) [Id_ii_S1_P5E.3_K5.2_C5.2_[C-2A]_[T-1A]_H5.2_A5.1_F5.1_T5.2_[T11C]_[A12T]]	552
UCUCUUCUUAUAUUAUUAAUUCUCUU (ssRNA) [Id_ii_S1_P5E.3_K5.2_C5.2_H5.2_A5.1_F5.1_T5.2_[T11A]_[A12T]]	460
UCUCUUCCUAUAUUAUUAACUCUCUU (ssRNA) [Id_ii_S1_P5E.3_K5.2_C5.2_[T-1C]_H5.2_A5.1_F5.1_T5.2_[T11A]_[A12C]]	620
UCUCUUCGUAUAUUAUUAUUUCUCUU (ssRNA) [Id_ii_S1_P5E.3_K5.2_C5.2_[T-1G]_H5.2_A5.1_F5.1_T5.2_[A12T]]	26.6
UCUCUUAUUAUAUUAUUAACUCUCUU (ssRNA) [Id_ii_S1_P5E.3_K5.2_C5.2_[C-2A]_H5.2_A5.1_F5.1_T5.2_[T11A]_[A12C]]	159
UCUCUUUGUAUUAUAUCUCUU (ssRNA) [Ib_S1_P4E.1_K4.1_C4.1_H4.1_A4.1_[A6T]_[T7A]_F4.1_T4.1]	2.13
UCUCUUCAUAUAUUAUUACUUCUCUU (ssRNA) [Id_ii_S1_P5E.3_K5.2_C5.2_[T-1A]_H5.2_A5.1_F5.1_T5.2_[T11C]_[A12T]]	321
UCUCUUCUUAUAUUAUUACAUCUCUU (ssRNA) [Id_ii_S1_P5E.3_K5.2_C5.2_H5.2_A5.1_F5.1_T5.2_[T11C]]	471
UCUCUUCAUAUAUUAUUAGUUCUCUU (ssRNA) [Id_ii_S1_P5E.3_K5.2_C5.2_[T-1A]_H5.2_A5.1_F5.1_T5.2_[T11G]_[A12T]]	141
UCUCUUAUUAUAUUAUUAGCUCUCUU (ssRNA) [Id_ii_S1_P5E.3_K5.2_C5.2_[C-2A]_H5.2_A5.1_F5.1_T5.2_[T11G]_[A12C]]	208
UCUCUUAUUAUAUUAUUAUUUCUCUU (ssRNA) [Id_ii_S1_P5E.3_K5.2_C5.2_[C-2A]_H5.2_A5.1_F5.1_T5.2_[A12T]]	160

Binder	Kd [nM]
UCUCUUGGACACUUAUUAUAUCUCUU (ssRNA) [Id_ii_S1_P5E.4_K5.3_C5.2_[C-2G]_[T-1G]_H5.3_A5.1_F5.1_T5.2]	> 2300
UCUCUUCAUAUAUUAUUAAUUCUCUU (ssRNA) [Id_ii_S1_P5E.3_K5.2_C5.2_[T-1A]_H5.2_A5.1_F5.1_T5.2_[T11A]_[A12T]]	424
UCUCUUGCACACUUAUUAAUUCUCUU (ssRNA) [Id_ii_S1_P5E.4_K5.3_C5.2_[C-2G]_[T-1C]_H5.3_A5.1_F5.1_T5.2_[T11A]_[A12T]]	1370
UCUCUUCAUAUAUUAUUAGGUCUCUU (ssRNA) [Id_ii_S1_P5E.3_K5.2_C5.2_[T-1A]_H5.2_A5.1_F5.1_T5.2_[T11G]_[A12G]]	488
UCUCUUCUUAUAUUAUUAUUUCUCUU (ssRNA) [Id_ii_S1_P5E.3_K5.2_C5.2_H5.2_A5.1_F5.1_T5.2_[A12T]]	228
UCUCUUAUUAUAUUAUUAUCUCUCUU (ssRNA) [Id_ii_S1_P5E.3_K5.2_C5.2_[C-2A]_H5.2_A5.1_F5.1_T5.2_[A12C]]	63.5
UCUCUUCCUAUAUUAUUACUUCUCUU (ssRNA) [Id_ii_S1_P5E.3_K5.2_C5.2_[T-1C]_H5.2_A5.1_F5.1_T5.2_[T11C]_[A12T]]	456
UCUCUUGGACACUUAUUAACUCUCUU (ssRNA) [Id_ii_S1_P5E.4_K5.3_C5.2_[C-2G]_[T-1G]_H5.3_A5.1_F5.1_T5.2_[T11A]_[A12C]]	> 2300
UCUCUUCGUAUAUUAUUAGUUCUCUU (ssRNA) [Id_ii_S1_P5E.3_K5.2_C5.2_[T-1G]_H5.2_A5.1_F5.1_T5.2_[T11G]_[A12T]]	25.4
UCUCUUAAUAUAUUAUUACCUCUCUU (ssRNA) [Id_ii_S1_P5E.3_K5.2_C5.2_[C-2A]_[T-1A]_H5.2_A5.1_F5.1_T5.2_[T11C]_[A12C]]	668
UCUCUUGCACACUUAUUACGUCUCUU (ssRNA) [Id_ii_S1_P5E.4_K5.3_C5.2_[C-2G]_[T-1C]_H5.3_A5.1_F5.1_T5.2_[T11C]_[A12G]]	> 2300
UCUCUUCGUAUAUUAUUAUCUCUCUU (ssRNA) [Id_ii_S1_P5E.3_K5.2_C5.2_[T-1G]_H5.2_A5.1_F5.1_T5.2_[A12C]]	18.4
UCUCUUCUUAUAUUAUUACGUCUCUU (ssRNA) [Id_ii_S1_P5E.3_K5.2_C5.2_H5.2_A5.1_F5.1_T5.2_[T11C]_[A12G]]	447
UCUCUUCGUAUAUUAUUAACUCUCUU (ssRNA) [Id_ii_S1_P5E.3_K5.2_C5.2_[T-1G]_H5.2_A5.1_F5.1_T5.2_[T11A]_[A12C]]	27.7
UCUCUUCAUAUAUUAUUAGCUCUCUU (ssRNA) [Id_ii_S1_P5E.3_K5.2_C5.2_[T-1A]_H5.2_A5.1_F5.1_T5.2_[T11G]_[A12C]]	157
UCUCUUCCUAUAUUAUUAUCUCUCUU (ssRNA) [Id_ii_S1_P5E.3_K5.2_C5.2_[T-1C]_H5.2_A5.1_F5.1_T5.2_[A12C]]	532
UCUCUUCAUAUAUUAUUACGUCUCUU (ssRNA) [Id_ii_S1_P5E.3_K5.2_C5.2_[T-1A]_H5.2_A5.1_F5.1_T5.2_[T11C]_[A12G]]	440
UCUCUUCCUAUAUUAUUAUUUCUCUU (ssRNA) [Id_ii_S1_P5E.3_K5.2_C5.2_[T-1C]_H5.2_A5.1_F5.1_T5.2_[A12T]]	517
UCUCUUUGUAUUAGUGUCUCUU (ssRNA) [Ib_S1_P5E.1_K5.1_C5.1_H5.1_A5.1_F5.1_[T8G]_[A10G]_T5.1]	386
UCUCUUAUUAUAUUAUUACAUCUCUU (ssRNA) [Id_ii_S1_P5E.3_K5.2_C5.2_[C-2A]_H5.2_A5.1_F5.1_T5.2_[T11C]]	128
